“And” between values parts separate entries of the source, which are not always exact repeats. Equal entries are not always repeated. Where two headings read alike, the source gives them in different places.
Experiments:
physchem = test: physchem
Experimental: To each microtube, 30 μL of a 0.1% aqueous TFA solution was added. These microtubes were shaken at 25° C. for 15 minutes and then centrifuged at 16100×g at 25° C. for 10 minutes. Subsequently, the absorbance of the supernatant at 280 nm was measured in each of these microtubes.
Then, three of these tubes were used in amino acid composition analysis to determine sample contents. […] This absorbance at 280 nm was divided by the concentration determined in the amino acid composition analysis to determine the molar absorption coefficient.
The molar absorption coefficient εM of the HER28-16 peptide (SEQ ID NO: 15) at 280 nm was calculated according to the following expression (C. N. Pace et al., Prot. Sci., 1995, 4, pp. 2411-2423): εM=Trp×5500+Tyr×1490+Cystine×125[A280/mol/cm]
wherein Trp represents the number of tryptophan residues, Tyr represents the number of tyrosine residues, and Cystine represents the number of disulfide bonds.

[1] = Autocatalytic cleavage of the glycosylated linker moiety in aqueous solution, traced by HPLC (elimination half-life)
Experimental: To each sampled solution, a 0.5% aqueous TFA solution (28 μL) was added, and this solution was then frozen. The obtained solution was dissolved immediately before HPLC analysis, and a 50 μL aliquot thereof was injected and analyzed by HPLC [column: SHISEIDO CAPCELL PAK C18 UG-120 (5 μm), φ4.6×250 mm, flow rate: 0.7 mL/min, eluent A: 0.1% TFA in water, eluent B: 0.09% TFA/10% water/90% acetonitrile, gradient A:B=77:23→50:50 (20 min) linear concentration gradient elution]. The compound was detected using a diode array detector with a detection wavelength set to 220 nm.

[2] = PBS solution, pH 7.4, Elimination half-life, PBS (pH 7.4), 25° C.
[3] = PBS solution, pH 7.4, Elimination half-life, PBS (pH 7.4), 37° C.
[4] = acetate buffer solution, pH 4, Elimination half-life, Acetate buffer solution (pH 4.0), 25° C.
[5] = acetate buffer solution, pH 4, Elimination half-life, Acetate buffer solution (pH 4.0), 37° C.

CC(C)C[C@H](NC(=O)[C@H](CC(C)C)NC(=O)[C@H](C)NC(=O)[C@H](CC(C)C)NC(=O)[C@H](CC(C)C)NC(=O)[C@H](CC(C)C)NC(=O)CNC(=O)[C@H](Cc1c[nH]c2ccccc12)NC(=O)[C@@H](N)CCCNC(=N)N)C(=O)O [HER28-16, reference compound]
solubility thermodynamic at 15 min (physchem): 210 µg/mL and 200 µM

CC(=O)N[C@@H]1[C@@H](O)[C@H](O[C@@H]2O[C@H](CO)[C@@H](O[C@@H]3O[C@H](CO[C@H]4O[C@H](CO)[C@@H](O)[C@H](O)[C@@H]4O[C@@H]4O[C@H](CO)[C@@H](O[C@@H]5O[C@H](CO)[C@H](O)[C@H](O)[C@H]5O)[C@H](O)[C@H]4NC(C)=O)[C@@H](O)[C@H](O[C@H]4O[C@H](CO)[C@@H](O)[C@H](O)[C@@H]4O[C@@H]4O[C@H](CO)[C@@H](O[C@@H]5O[C@H](CO)[C@H](O)[C@H](O)[C@H]5O)[C@H](O)[C@H]4NC(C)=O)[C@@H]3O)[C@H](O)[C@H]2NC(C)=O)[C@@H](CO)O[C@H]1NC(=O)CC(N)C(=O)N1CCN(CCNC(=O)c2ccccc2C(=O)N[C@@H](Cc2ccc(O)cc2)C(=O)N[C@@H](Cc2ccccc2)C(=O)N2CCC[C@H]2C(=O)NCC(=O)N[C@@H](CCC(N)=O)C(=O)N[C@@H](Cc2ccccc2)C(=O)N[C@@H](C)C(=O)N[C@@H](Cc2ccccc2)C(=O)N[C@@H](CO)C(=O)O)CC1 (stereo partly shown) [compound 1, glycosylated (Asn (asialo)-type) linker-chemerin 9 conjugate]
half-life ([1]; PBS solution, pH 7.4, Elimination half-life, PBS (pH 7.4), 4° C.): 43.1 h | half-life [1, 2]: 4.3 h | half-life [1, 3]: 1.2 h | half-life ([1]; acetate buffer solution, pH 4, Elimination half-life, Acetate buffer solution (pH 4.0), 4° C.): 250 h | half-life [1, 4]: 16 h | half-life [1, 5]: 4.4 h | half-life ([1]; water, Elimination half-life (Reference), in water, 4° C.): 221 h

CC(=O)N[C@@H]1[C@@H](O)[C@H](O)[C@@H](CO)O[C@H]1NC(=O)CSC[C@H](N)C(=O)N1CCN(CCNC(=O)c2ccccc2C(=O)N[C@@H](Cc2ccc(O)cc2)C(=O)N[C@@H](Cc2ccccc2)C(=O)N2CCC[C@H]2C(=O)NCC(=O)N[C@@H](CCC(N)=O)C(=O)N[C@@H](Cc2ccccc2)C(=O)N[C@@H](C)C(=O)N[C@@H](Cc2ccccc2)C(=O)N[C@@H](CO)C(=O)O)CC1 [compound 4, glycosylated (Cys (GlcNAc)-type) linker-chemerin 9 conjugate]
half-life [1, 3]: 1.4 h | half-life [1, 5]: 4.3 h

CC(=O)N[C@@H]1[C@@H](O)[C@H](O[C@@H]2O[C@H](CO)[C@@H](O[C@@H]3O[C@H](CO[C@H]4O[C@H](CO)[C@@H](O)[C@H](O)[C@@H]4O[C@@H]4O[C@H](CO)[C@@H](O[C@@H]5O[C@H](CO)[C@H](O)[C@H](O)[C@H]5O)[C@H](O)[C@H]4NC(C)=O)[C@@H](O)[C@H](O[C@H]4O[C@H](CO)[C@@H](O)[C@H](O)[C@@H]4O[C@@H]4O[C@H](CO)[C@@H](O[C@@H]5O[C@H](CO)[C@H](O)[C@H](O)[C@H]5O)[C@H](O)[C@H]4NC(C)=O)[C@@H]3O)[C@H](O)[C@H]2NC(C)=O)[C@@H](CO)O[C@H]1NC(=O)CSCC(N)C(=O)N1CCN(CCNC(=O)c2ccccc2C(=O)N[C@@H](Cc2ccc(O)cc2)C(=O)N[C@@H](Cc2ccccc2)C(=O)N2CCC[C@H]2C(=O)NCC(=O)N[C@@H](CCC(N)=O)C(=O)N[C@@H](Cc2ccccc2)C(=O)N[C@@H](C)C(=O)N[C@@H](Cc2ccccc2)C(=O)N[C@@H](CO)C(=O)O)CC1 (stereo partly shown) [compound 5, glycosylated (Cys (asialo)-type) linker-chemerin 9 conjugate]
half-life [1, 3]: 1.3 h | half-life [1, 5]: 4.5 h

CC(=O)N[C@@H]1[C@@H](O)[C@H](O[C@@H]2O[C@H](CO)[C@@H](O[C@@H]3O[C@H](CO[C@H]4O[C@H](CO)[C@@H](O)[C@H](O)[C@@H]4O[C@@H]4O[C@H](CO)[C@@H](O[C@@H]5O[C@H](CO)[C@H](O)[C@H](O)[C@H]5O)[C@H](O)[C@H]4NC(C)=O)[C@@H](O)[C@H](O[C@H]4O[C@H](CO)[C@@H](O)[C@H](O)[C@@H]4O[C@@H]4O[C@H](CO)[C@@H](O[C@@H]5O[C@H](CO)[C@H](O)[C@H](O)[C@H]5O)[C@H](O)[C@H]4NC(C)=O)[C@@H]3O)[C@H](O)[C@H]2NC(C)=O)[C@@H](CO)O[C@H]1NC(=O)CC(NC(=O)OCC1c2ccccc2-c2ccccc21)C(=O)N1CCN(CCNC(=O)c2ccccc2C(=O)N[C@@H](Cc2ccc(O)cc2)C(=O)N[C@@H](Cc2ccccc2)C(=O)N2CCC[C@H]2C(=O)NCC(=O)N[C@@H](CCC(N)=O)C(=O)N[C@@H](Cc2ccccc2)C(=O)N[C@@H](C)C(=O)N[C@@H](Cc2ccccc2)C(=O)N[C@@H](CO)C(=O)O)CC1 (stereo partly shown) [compound 7, glycosylated (Fmoc-Asn (asialo)-type) linker-chemerin 9 conjugate]
half-life [1, 3]: 2.6 h | half-life [1, 5]: 12.2 h

CC(=O)N[C@@H]1[C@@H](O)[C@H](O[C@@H]2O[C@H](CO)[C@@H](O[C@@H]3O[C@H](CO[C@H]4O[C@H](CO)[C@@H](O)[C@H](O)[C@@H]4O[C@@H]4O[C@H](CO)[C@@H](O[C@@H]5O[C@H](CO)[C@H](O)[C@H](O)[C@H]5O)[C@H](O)[C@H]4NC(C)=O)[C@@H](O)[C@H](O[C@H]4O[C@H](CO)[C@@H](O)[C@H](O)[C@@H]4O[C@@H]4O[C@H](CO)[C@@H](O[C@@H]5O[C@H](CO)[C@H](O)[C@H](O)[C@H]5O)[C@H](O)[C@H]4NC(C)=O)[C@@H]3O)[C@H](O)[C@H]2NC(C)=O)[C@@H](CO)O[C@H]1NC(=O)CC(N)C(=O)N1CCN(CCNC(=O)c2c(Cl)c(Cl)c(Cl)c(Cl)c2C(=O)N[C@@H](Cc2ccc(O)cc2)C(=O)N[C@@H](Cc2ccccc2)C(=O)N2CCC[C@H]2C(=O)NCC(=O)N[C@@H](CCC(N)=O)C(=O)N[C@@H](Cc2ccccc2)C(=O)N[C@@H](C)C(=O)N[C@@H](Cc2ccccc2)C(=O)N[C@@H](CO)C(=O)O)CC1 (stereo partly shown) [compound 10, glycosylated (Asn (asialo)-tetrachlorophthaloyl-type) linker-chemerin 9 conjugate]
half-life [1, 2]: 1.1 h | half-life [1, 3]: 0.255 h | half-life [1, 4]: 4.5 h | half-life [1, 5]: 1.3 h

CC(=O)N[C@@H]1[C@@H](O)[C@H](O[C@@H]2O[C@H](CO)[C@@H](O[C@@H]3O[C@H](CO[C@H]4O[C@H](CO)[C@@H](O)[C@H](O)[C@@H]4O[C@@H]4O[C@H](CO)[C@@H](O[C@@H]5O[C@H](CO)[C@H](O)[C@H](O)[C@H]5O)[C@H](O)[C@H]4NC(C)=O)[C@@H](O)[C@H](O[C@H]4O[C@H](CO)[C@@H](O)[C@H](O)[C@@H]4O[C@@H]4O[C@H](CO)[C@@H](O[C@@H]5O[C@H](CO)[C@H](O)[C@H](O)[C@H]5O)[C@H](O)[C@H]4NC(C)=O)[C@@H]3O)[C@H](O)[C@H]2NC(C)=O)[C@@H](CO)O[C@H]1NC(=O)CC(N)C(=O)N1CCN(CCNC(=O)c2ccccc2C(=O)N[C@@H](CCCNC(=N)N)C(=O)N[C@@H](Cc2c[nH]c3ccccc23)C(=O)NCC(=O)N[C@@H](CC(C)C)C(=O)N[C@@H](CC(C)C)C(=O)N[C@@H](CC(C)C)C(=O)N[C@@H](C)C(=O)N[C@@H](CC(C)C)C(=O)N[C@@H](CC(C)C)C(=O)O)CC1 (stereo partly shown) [compound 11, glycosylated (Asn (asialo)-type) linker-HER28-16 conjugate]
half-life [1, 2]: 8.3 h | half-life [1, 3]: 2.6 h | half-life [1, 4]: 21.4 h | half-life [1, 5]: 6.2 h | solubility at 15 minutes (physchem): > 38 mM | Solubility (physchem; 0.1% aqueous TFA solution, 25° C., listed as Glycosylated linker-HER28-16 conjugate (compound 11)): >116 mg/mL | solubility at 15 minutes (physchem; Solubility (molar concentration), 0.1% aqueous TFA solution, 25° C.): ≥ 38 mM

— patent US9708413B2, “Glycosylated linker, compound containing glycosylated linker moiety and physiologically active substance moiety or salt thereof, and methods for producing said compound or salt thereof” (Glytech, Inc., priority 2012, dated 2017)
